Measured values taken from the domain aggregation screens of Martell et al. (2025).

Assay: soluble fraction after stress (log2 fold change); higher = more stays soluble; pooled small domains, quantitative proteomics
Settings: stress: 50 degC
In short: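 After stress at 50°C, the amount of each protein still soluble was measured. This was done on pooled custom libraries of small protein domains, using high-throughput quantitative proteomics. The figure given is a base-two log fold change and stands for aggregation propensity, with higher values meaning more protein stays in solution.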

Sequence	soluble fraction (log2)
HMSSGLLTVQEQRILEHLANGERNGDIAGRLHISEGTVKWHLHNMYRKLDAATRTQAVARARALRL	-0.109
HMDTNEPFAQLQLRFTDPIQYDYEVIRPVVLFSQSVTDRSDETEMPRTTVREKARQFVTEGMLGLVDK	-0.00748
HMAMDYEGFKKSVYALTSIDLNAYKERQMKRRIDTLIAKNKYNGYEDYTAAIKKDKALFEEFVNYLTIN	-0.284
HMYKIDFAEGDRVIIKGGAFSGLRATVVSLHPEKGMAKIKVYMFGDRETLVDIEVSQLEKDK	-0.348
HMAENTKKWDETGRRYRSYIKLEKRLSENTVESYMRDYMQFAHFILRQWDVAPHKVEPQMVERYMAWLYER	-0.00858
HMPMHPEDLKKLVSIEMPFGKHKGRIIADLPGNYLNWFAREGFPPGEIGRLLQLMQEIDHNGLSDLLKPLR	-0.3
HMSTVISPLPGNIIKVLVPEGKSVKRGDTILTIESMKMENSIKAAYDGVVKKIYVQQAQIVMQGDPLFDL	-1.24
HMKNQIGFKIKNARRKASISQADLSAKLGISSSYLNLIESGKRNVNVDLLLKVSDVLNIELKDLSK	-0.781
HMHVYSYPAAVKIKNAVGREMMVTLLGRSGTHVQFARQDGEEFVYPISSLDLAAQTLISKYPNDGIKN	-0.444
HMDSKPNDLLFVYVSQLIRSLTLNSSKKDSELADELEVSISQIRIWLKKLINEQLIVKESKPVKYRWKG	-2.95
HMGTSFKITFYKDAFQVDDGPIRMLNDPANQKFVDEVSQGYAPKELIGQGGKAPEIDIIDKRSENAPT	0.128
HMASVDDILDRFKQAAKVTTDADLAKVLGLSRQSIAAARLRAKIPASWFPKMSSLFNISTEWLYRG	-0.628
HMTEYFTIESQEGERIDRYLSEELEDKSRSYIQKLIRDGHVLVDGKTVKAGYRLVAGDNIAITLPEI	-0.0879
HMGKPSSEELEALGRRTLEENVDVVEEILGGRDPKGKKIKYLEGLMMRALRGQETPEAVRRTLEELIFK	0.0847
HMEAEGLDFAPMPGEIGKKLWQEVSKEAWAGWLKHQTMLVNENRLSFVDPAARKYLTEQTEAYFFG	0.131
HMFVEEGSLKKITFDTYEFNITDNLKSLRVTYQGLLPNLFREGQGVVIEGILLEQNYIQANTVF	0.22
HMSMTVHGALRLLQLPTIADRPYTLKEIREAYREQAQNHHPDAGGSADAMRRLNEAYQFLKERYRQA	-0.16
HMNGDYFEYRYAVNGSRSTPPSLSKTSRNPSGWSTTVPTVGNLQYLWFTVAKINGETNSLIQNWSTPARQT	-0.13
HMEVGDTYLGKVTRVSSFGAFIEVLPGKEGLMRQNDAGEGGMPEVGDEVMVRVMEVDHLGRINLSGKLDD	-0.0268
HMKELVEDFASRISNARQSKGWNQSELAKRMAETVNVVKSAESGKSPTDSVIKKLERVLGIILM	-0.591
HMEAGLRMPEQLTAFSALALLQKVRDSGPLTDAQKEQLDADVLRIEASHFGKADREALELEEILKQWLSRV	-0.135
HMQVSDEGAIQLLVQKAIEENPQAIEAFRGGKTSALGPVVGWVMKQSKGAANPTMVKTLLEKAI	0.293
HMEAFAEAVASMLRKLQPEFAIDLVGPRELLVNGRRLDLENLYRMVNHEPVRGQEIVEHYLDQLFAG	-0.53

Sequence	soluble fraction (log2)
HMNSYKGELLVDDKNIRLDLYLFNQFNFFSRTKIKNYILKGNVLVNNNKTSPSYILKGSEKIYYDFSVS	-1.2
HMSSQLETTFATLIGKRVSIRLHDPEGGFRDILGHLESPYSLRNRHGNLIEFAHDQIFLWREVI	-0.951
HMNKMIIELGEKLKALRTENHLRQDQVARLVNVEKSSISMYETGMRQPSYTTLVRLADVFNVTTDYLLGRK	-2.24
HMRTAELEVWDDDELNDVVKLIQNNHNINTLKLRFQENVSFSGLSLIAAVLTKQSIILEIEY	0.0488
HMHLKRQEAINLGAYLLGAELRIHRLSLEELGSERIDEMLAAINYKTLDDLLADIGLGNRPARFVARQLG	-1.53
HMIDKIRYPELIMKLAHQQGGTIKRRDVEQLLHLQTKQAYRELSKLVDAGELVSVGRGPGAHYEVS	0.042
HMNEPITIALREAEEAANKILNEGVHSVELSPQNGYVRRLQHELIARYGLTSASRGSDPSRRVSVGAN	-0.212
HMKVEFTPAYLKKFKANKNAWKFYEAQTNTYKKQSAWYVISAKQEETRLRRLDLLIYDSENGIHIKPLRR	-2.6
HMGGYVVVGDKDGFWSVVSTPVSKAKAEELLKDTTFPKGEKGKIVSVAEAMSHKKVIGKEYLESGGT	0.117
HMGSRAEAKEFLQTMLADGRQLATDMEEARQAHDIADRTLRRARKELNVQVYRDGNAWYWELPTPIK	-0.0501
HMYDFGVILQKLRKEKGFTQEQLARLIHKESSIISRYEKGLQNPTFETVKEFAAIFNVSMDYLAG	-1.25
HMQGVTVPDLTRVSLEEAVATISSLGLRYEISDRRSNAAFPANYVLDQAPGANTIVKPNRKVYLTVNAA	0.35
HMESWEDSNIANEFKSTIKIAEKRLAEGGDHPELLEKLEALKQAIINENQTEASKLDDQVNDILFDMDD	-0.0057
HMKGTVLAPGIILNADDQRFTYLQEDVASVAKDGAAIVLKQGDEVDFIADGQTAKQIYLTKT	0.0649
HMPKYLNIYHELAQRIQEGALPAETKLPSETELMQEFEASRGTVRKAIDALQEKGFVRKHQGKGVFVLSQ	-0.371
HMQILVEGVEANQRLDLFLRARLTEFSRSRIQGLVKNGNVLVNGNIARQAYLVQVGDKIELDVPEPVA	-0.487
HMQRIFIDNHDRILYYSNPAGYIAGKEAVVDTMFQTQELERFLQKQSLSIRWEDGVYDRLLLGQ	0.016
HMSSSKVAISQFEELVDQGQVREVVIEGSTATGTTAAGRRFAAEIPPGGMELFLSKLDDAGTTYEYSPP	≥ 0.62
HMQMLQDPFLNALRKEHVPVSIYLVNGIKLQGQVESFDQYVVLLRNTSVTQMVYKHAISTIVPARAVSL	-0.403
HMSPFYALDEVDSFLDGVNVERLAALIARQAEQAQFLVVSHRRPMIGASTRTIGVTQARGAHTQVVGLP	-0.25
HMNVKVSVDDIARPGLMASGRVTFADGNRGMWYVDEMGRLGIDPEVEGYQPSEADIQAFQRELQSVMES	0.102
HMKISDLPAAQVYREIVHAWPKAAAYADLAPINNGGMQRWRDVVHEWVLRGYNPANLRGMLEWYKAGIPTR	-0.398
HMQSLAAKINGYIVAQRTSIAAIAKEIGYSRVTVSRYLAGKYDSDPTGIEAKLAAFLAGQTGEE	-1.75

Sequence	soluble fraction (log2)
HMDYGTATASAILYLEKIDPENPYLLLAKDTITTNPKMSVNFALKGIIESKKGEKEENLNKALEIMSSL	0.049
HMPVAPTYALTVKTDPPSANVRLLNSPTPYQPGVRLPSGNYDIEVTQSGYATRKESVRIADRDVALNIAL	0.163
HMIDVNLVQRGKTLHLRRRVPMRYSSVERREYVSISLKTDSEAEARRKAGAAWDQMIAAWEARLA	-0.35
HMIVSVPNVRGMGESKAAAALQNRGLLVSIDYESSTSASQGEVIRQSISPGTEVTKGSSITIIIAVSPN	-0.0262
HMAEPIAAGKYTVSTSGSVLNMRVSPDADSQVLEKIPNGTIVEVTKSVLGWAYVTYNSAQGWVSSAYLV	0.15
HMEPEVEITYFKPDERKAGGAYVTVTGAVIKVDDFERLITMQDGTKIPMDDILSIDGELFLS	-0.333
HMSVIETLLSDREREVLTHLVNGYDAKRIAEITGISTLTVRKHIANIYTKLHVNSKAQVISMAHKNKWF	-0.657
HMSDPSAQADALFNEGKTAEAFNVLLRLIEDSPEDQREDYRVRLLDLFRIAGNTPEVKAARRRLSALLM	-0.252
HMKPFSLESYKAFVVKRLGLFPETSSAQMHDWLKEEYPDFPLITPRTVYNFVMKIRQDYGIAKV	-3.66
HMDYKSNLQEMVQTTKKSVTYELVKEEGPAHDRTFTMNVIVDGIVLGTGTAKSKKEAEQEAAHQALEKKA	-0.0398
HMIIENIVVEIKGEVYNPGLYILEQGSRINDLIELSGGFTKDANGTDLNLAKVLSDGEVIIVSKKG	-0.2
HMTELIEDYVELIGDLIRHRGEARAADIANRMAVSQATVSKMIRRLNELGLVTSKPYRSLFLTDEGQKMAE	-0.474
HMHAGQIISQKIKESGISISHVAKHLKVQRATLYNLFEREVWPAHRLRTIEALLHIDLSDLYP	-1.62
HMVARPVLQIGSTGADVTAIQARLGVSQTGYFGVLTAAAVTNFQRSNGIAASGKVGATTWAKLMQSA	-1.14
HMLENIVFTNKFKNKRLDVLLVDMKLVSSRQKAVSLIMRGNVFVEEERADKPGKIIKLNQTISLKK	-2.6
HMRQYPSGVFKEEGVKAVYIHAGTPFLVIAAQYKIPLARLFEWNNLLPSTEARISQVIYLERPG	-3.67
HMKTLPADPTVKNFSYTVVDGEIYYRENSIMTQIELSDNAKGRVAGMVELRQIVNELIDQQLND	-0.896
HMAVSDAAEEYGKAGTPLVILAGKEYGSGSSRDWAAKGPYLQGVRAVLAESYERIHRSNLVGMGIVPLTYK	0.0654
HMEDGEALARAVASLPGKYREVLFLKYSHGYSVDEIALILSMSKENVKKTIQRARKKLEQLLESE	-0.898
HMALWFDEWKKYQDTIASADLLPDKAERDALIAQAEDRFNYWMDIYPRSASLNHSFDDLYEEHRRKIE	-0.75
HMAVPLVRGTVTSSVGTVLLLSVGERDFFLSEGEEKDGVLLQSLSEKSAVVVVSGRAYTLSL	-0.408
HMITMWYYKKDGNIIGPASARKIASMRELGIITDSTPVSRKRNAKNWETFGGLSEKINLESSQWD	-1.9
HMNEMEWVAKLIDQLPERERMILQLREIEQYEFDQIASLMEIPEGTVRVYLSRIRKKIKKQFIEIQSH	0.0739
